Assay results: patent publication US5945329A, “Customized proteases” (Carlsberg A/S, priority 1997, dated 1999)

Tests used:
[1] = substrate: CC(C)[C@H](NC(=O)[C@H](Cc1ccccc1)NC(=O)C=Cc1ccco1)C(=O)O; assay: purified protein, by the assay type; conditions: other: hydrolysis of FA-Phe-Val-OH
[2] = substrate: CC(C)C[C@H](NC(=O)[C@H](C)NC(=O)OCc1ccccc1)C(=O)O; assay: Hydrolysis of CBZ-X-Leu-OH substrates; format: biochemical, yeast; conditions: other: Table X, hydrolysis at 25° C., 10 mM sodium phosphate pH 6.5
Experimental: (§1) Over-expression of selected mutant enzymes was performed according to Nielsen et al. (1990) cited supra. The mutant BamHI-BamHI PRC1 fragments of pYSP32 were inserted into the GAL expression vector pRA21 and introduced into yeast strain K2579LLR. The plasmid pRA21 is derived from p72UG (Nielsen et al. (1990) cited supra) by replacing the 918 bp BglII-SalI fragment with the 638 bp BglII-PvuII fragment of pWI3, thereby deleting the BamHI site downstream of the PRC1 gene. Mutant forms of CPD-Y were purified from culture supernatants by affinity chromatography as described in Example 1. Kinetic parameters were determined by measuring rates of hydrolysis at 25° C. of CBZ-X-Leu-OH substrates spectrophotometrically at 224 nm in 10 mM sodium phosphate buffer pH 6.5. The concentrations of substrates ranged from 0.01 to 0.5 mM. Accurate measurements were not possible with substrate concentrations exceeding 0.5 mM due to the high absorption of the substrate.

[3] = substrate: CC(C)C[C@H](NC(=O)[C@H](CCC(=O)O)NC(=O)OCc1ccccc1)C(=O)O; assay: Hydrolysis of CBZ-X-Leu-OH substrates; format: biochemical, yeast; conditions: other: Table X and text, hydrolysis at 25° C., 10 mM sodium phosphate pH 6.5
Experimental: as §1

[4] = substrate: CC(C)C[C@H](NC(=O)[C@H](CCCCN)NC(=O)OCc1ccccc1)C(=O)O; assay: Hydrolysis of CBZ-X-Leu-OH substrates; format: biochemical, yeast; conditions: other: Table X and text, hydrolysis at 25° C., 10 mM sodium phosphate pH 6.5
Experimental: as §1

[5] = substrate: CC(C)C[C@H](NC(=O)[C@H](CO)NC(=O)OCc1ccccc1)C(=O)O; assay: Hydrolysis of CBZ-X-Leu-OH substrates; format: biochemical, yeast; conditions: other: Table X, hydrolysis at 25° C., 10 mM sodium phosphate pH 6.5
Experimental: as §1

[6] = substrate: CC(C)C[C@H](NC(=O)[C@H](Cc1ccccc1)NC(=O)OCc1ccccc1)C(=O)O; assay: Hydrolysis of CBZ-X-Leu-OH substrates; format: biochemical, yeast; conditions: other: Table X, hydrolysis at 25° C., 10 mM sodium phosphate pH 6.5
Experimental: as §1

## carboxypeptidase Y (enzyme)
FA-Ala-Arg-OH
  famax of transpeptidation (nucleophile H-Val-NH2): 1
FA-Ala-Gln-OH
  famax of transpeptidation (nucleophile H-Gly-NH2): 0.93
FA-Ala-Lys-OH
  famax of transpeptidation (nucleophile H-Gly-NH2): 0.99
FA-Ala-Ala-OH
  famax of transpeptidation (nucleophile H-Val-NH2): 0.94
FA-Ala-Leu-OH
  famax of transpeptidation (nucleophile H-Val-NH2): 0.16
FA-Ala-Phe-OH
  famax of transpeptidation (nucleophile H-Val-NH2): 0.06
FA-Ala-Val-OH
  famax of transpeptidation (nucleophile H-Val-NH2): 0.22
CBZ-Gly-Leu-OH
  estimated CPD-Y activity relative to wild type transformants (fold of wild type): 1
CBZ-His-Leu-OH
  estimated CPD-Y activity relative to wild type transformants (fold of wild type): 1
CBZ-Pro-Leu-OH
  estimated CPD-Y activity relative to wild type transformants (fold of wild type): 1
CBZ-Trp-Leu-OH
  estimated CPD-Y activity relative to wild type transformants (fold of wild type): 1
CBZ-Ala-Leu-OH
  kcat/Km of hydrolysis: 600000 M⁻¹ s⁻¹
CBZ-Glu-Leu-OH
  kcat/Km of hydrolysis: 7330 M⁻¹ s⁻¹
CBZ-Lys-Leu-OH
  kcat/Km of hydrolysis: 400 M⁻¹ s⁻¹
CBZ-Phe-Leu-OH
  kcat/Km of hydrolysis: 6.33e+06 M⁻¹ s⁻¹
CBZ-Ser-Leu-OH
  kcat/Km of hydrolysis: 200000 M⁻¹ s⁻¹
FA-Phe-Val-OH
  kcat/KM of hydrolysis: 2.33e+06 M⁻¹ s⁻¹

B1: yeast carboxypeptidase Y (CPD-Y), wild type (SEQ ID NO:32) (Saccharomyces cerevisiae S288C) (protein)
chain: KIKDPKILGIDPNVTQYTGYLDVEDEDKHFFFWTFESRNDPAKDPVILWLNGGPGCSSLTGLFFELGPSSIGPDLKPIGNPYSWNSNATVIFLDQPVNVGFSYSGSSGVSNTVAAGKDVYNFLELFFDQFPEYVNKGQDFHIAGESYAGHYIPVFASEILSHKDRNFNLTSVLIGNGLTDPLTQYNYYEPMACGEGGEPSVLPSEECSAMEDSLERCLGLIESCYDSQSVWSCVPATIYCNNAQLAPYQRTGRNVYDIRKDCEGGNLCYPTLQDIDDYLNQDYVKEAVGAEVDHYESCNFDINRNFLFAGDWMKPYHTAVTDLLNQDLPILVYAGDKDFICNWLGNKAWTDVLPWKYDEEFASQKVRNWTASITDEVAGEVKSYKHFTYLRVFNGGHMVPFDVPENALSMVNEWIHGGFSL
notes: purchased Carlbiotech, Copenhagen, Denmark
[1]
  Km: 47 µM
[2]
  Km: 700 µM
  kcat: 25000 mM/min/mM
  kcat/Km: 36,000 min^-1 mM^-1
[3]
  kcat/Km: 7330 M⁻¹ s⁻¹
[4]
  kcat/Km: 400 M⁻¹ s⁻¹
[5]
  Km: 70 µM
  kcat: 800 mM/min/mM
  kcat/Km: 12,000 min^-1 mM^-1
[6]
  Km: 36 µM
  kcat: 13600 mM/min/mM
  kcat/Km: 380,000 min^-1 mM^-1
